# Values quoted from earlier work as cited in article PMC5221605.
# Key:
# [1] = molecular target: Fibrinogen Aα-chain 561-575 (Homo sapiens) (UniProt P02671)
# [2] = molecular target: Fibrinogen (Homo sapiens) (UniProt P02671)
# [3] = molecular target: Fibrin (Homo sapiens) (UniProt P02671)
# UniProt P02671, sequence (P02671 36-866, chain 1 of 3): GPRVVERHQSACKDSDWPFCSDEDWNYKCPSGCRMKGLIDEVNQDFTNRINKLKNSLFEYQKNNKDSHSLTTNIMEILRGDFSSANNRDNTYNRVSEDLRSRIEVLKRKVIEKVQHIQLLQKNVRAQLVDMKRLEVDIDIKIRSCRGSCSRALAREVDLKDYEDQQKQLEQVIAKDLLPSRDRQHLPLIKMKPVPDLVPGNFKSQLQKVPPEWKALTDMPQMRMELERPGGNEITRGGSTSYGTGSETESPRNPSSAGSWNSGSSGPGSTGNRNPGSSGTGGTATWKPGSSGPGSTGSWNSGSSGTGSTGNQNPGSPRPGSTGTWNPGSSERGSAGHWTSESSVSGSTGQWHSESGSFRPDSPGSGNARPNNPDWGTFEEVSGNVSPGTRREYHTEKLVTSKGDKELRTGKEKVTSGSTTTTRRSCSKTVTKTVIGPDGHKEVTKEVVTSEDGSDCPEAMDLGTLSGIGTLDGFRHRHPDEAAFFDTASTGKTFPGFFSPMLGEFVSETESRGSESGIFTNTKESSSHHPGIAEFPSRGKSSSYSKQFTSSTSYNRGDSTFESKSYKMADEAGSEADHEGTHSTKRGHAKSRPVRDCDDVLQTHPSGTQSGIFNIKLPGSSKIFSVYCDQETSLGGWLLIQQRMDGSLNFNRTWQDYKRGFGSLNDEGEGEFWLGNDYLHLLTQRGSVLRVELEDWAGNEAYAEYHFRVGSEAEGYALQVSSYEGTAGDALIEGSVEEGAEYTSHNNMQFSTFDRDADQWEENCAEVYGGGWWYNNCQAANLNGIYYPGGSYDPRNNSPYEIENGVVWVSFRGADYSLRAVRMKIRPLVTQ
# UniProt P02671, sequence (P02675 45-491, chain 2 of 3, further chain): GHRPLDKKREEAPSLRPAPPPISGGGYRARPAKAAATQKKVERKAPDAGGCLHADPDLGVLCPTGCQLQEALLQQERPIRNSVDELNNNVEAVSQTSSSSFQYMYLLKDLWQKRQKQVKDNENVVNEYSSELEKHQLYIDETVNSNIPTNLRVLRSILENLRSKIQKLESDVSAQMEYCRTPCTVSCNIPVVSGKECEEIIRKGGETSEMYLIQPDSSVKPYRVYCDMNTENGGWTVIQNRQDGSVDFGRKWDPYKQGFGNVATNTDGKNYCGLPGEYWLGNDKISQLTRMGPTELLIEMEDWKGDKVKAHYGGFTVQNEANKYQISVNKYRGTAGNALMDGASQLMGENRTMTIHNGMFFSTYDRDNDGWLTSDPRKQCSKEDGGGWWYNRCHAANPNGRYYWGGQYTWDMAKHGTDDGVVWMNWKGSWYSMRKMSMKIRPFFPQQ
# UniProt P02671, sequence (P02679 27-453, chain 3 of 3, further chain): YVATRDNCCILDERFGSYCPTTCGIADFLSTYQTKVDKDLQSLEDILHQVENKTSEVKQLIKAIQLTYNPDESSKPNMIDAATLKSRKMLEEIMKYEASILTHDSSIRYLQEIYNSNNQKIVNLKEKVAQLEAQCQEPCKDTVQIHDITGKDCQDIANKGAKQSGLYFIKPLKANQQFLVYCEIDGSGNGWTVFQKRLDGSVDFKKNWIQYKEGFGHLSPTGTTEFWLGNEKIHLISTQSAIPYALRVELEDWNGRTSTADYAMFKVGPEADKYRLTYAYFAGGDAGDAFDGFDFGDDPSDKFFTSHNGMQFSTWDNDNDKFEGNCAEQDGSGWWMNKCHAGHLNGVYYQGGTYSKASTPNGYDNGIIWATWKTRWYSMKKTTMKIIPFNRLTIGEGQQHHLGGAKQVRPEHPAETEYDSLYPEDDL
Substance,Kd [1],Kd [2],Kd [3]
Bbp N2-N3 (from UniProt Q6GJA6),500 nM,–,–
ClfA (from UniProt Q2G015),–,500 nM,500 nM
